Patent publication US20190241648A1 (STATEN BIOTECHNOLOGY B V, published 2019)
Ends that are not written are not given here.

What was measured:
Experiment in all cases: cyclic peptide substitution array
ApoC3 peptide D59S = molecular target: T1, ApoC3 peptide D59S (human, thioether (positions not given here); not fully specified (C-terminus, bridges); also: cyclised via thioether between a C-terminal Cys and a modified N-terminus, the Cys and the N-terminal …)
T1 peptide: SKFSEFWDLDPEV
In short: (§1)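 Peptide microarrays incubated with antibody samples, then stained with goat anti-human IgG (Fc) DyLight680 and anti-HA DyLight800 control antibodies, scanned at intensity 7/7 (red/green). Secondary-only pre-stain checked background binding; framing HA peptides served as quality control; substitution effects read as changes in spot intensity.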

ApoC3 peptide D68R = molecular target: T2, ApoC3 peptide D68R (human, cyclic (thioether))
T2 peptide: DKFSEFWDLRPEV
In short: as §1

ApoC3 peptide D59R = molecular target: T3, ApoC3 peptide D59R (human, thioether (positions not given here); not fully specified (C-terminus, bridges); also: cyclised via thioether between a C-terminal Cys and a modified N-terminus, the Cys and the N-terminal …)
T3 peptide: RKFSEFWDLDPEV
In short: as §1

ApoC3 peptide E70N = molecular target: T4, ApoC3 peptide E70N (human, cyclic (thioether))
T4 peptide: DKFSEFWDLDPNV
In short: as §1

ApoC3 peptide K60F = molecular target: T5, ApoC3 peptide K60F (human, cyclic (thioether))
T5 peptide: DFFSEFWDLDPEV
In short: as §1

ApoC3 peptide K60C = molecular target: T6, ApoC3 peptide K60C (human, thioether (positions not given here); not fully specified (bridges); also: cyclic (thioether), positions not given here)
T6 peptide: DCFSEFWDLDPEV
In short: as §1

ApoC3 peptide S62Y = molecular target: T7, ApoC3 peptide S62Y (human, thioether (positions not given here); also: cyclic (thioether), ring places not given here)
T7 peptide: DKFYEFWDLDPEV
In short: as §1

ApoC3 peptide E63N = molecular target: T8, ApoC3 peptide E63N (human, cyclic (thioether))
T8 peptide: DKFSNFWDLDPEV
In short: as §1

ApoC3 peptide F61G = molecular target: T9, ApoC3 peptide F61G (human, cyclic (thioether))
T9 peptide: DKGSEFWDLDPEV
In short: as §1

ApoC3 peptide E70M = molecular target: T10, ApoC3 peptide E70M (human, cyclic (thioether))
T10 peptide: DKFSEFWDLDPMV
In short: as §1

ApoC3 peptide F64N = molecular target: T11, ApoC3 peptide F64N (human, thioether (positions not given here); not fully specified (bridges); also: cyclic (thioether), positions not given here)
T11 peptide: DKFSENWDLDPEV
In short: as §1

ApoC3 peptide P69C = molecular target: T12, ApoC3 peptide P69C (human, thioether (positions not given here); not fully specified (bridges); also: thioether from modified N-terminus to C-terminal Cys (Cys not in chain))
T12 peptide: DKFSEFWDLDCEV
In short: as §1

ApoC3 peptide W65R = molecular target: T13, ApoC3 peptide W65R (human, cyclic (thioether))
T13 peptide: DKFSEFRDLDPEV
In short: as §1

ApoC3 peptide D66R = molecular target: T14, ApoC3 peptide D66R (human, not fully specified; cyclic (thioether))
T14 peptide: DKFSEFWRLDPEV
In short: as §1

ApoC3 peptide F64L = molecular target: T15, ApoC3 peptide F64L (human, thioether (positions not given here); not fully specified (bridges); also: cyclic (thioether), positions not given here)
T15 peptide: DKFSELWDLDPEV
In short: as §1

ApoC3 peptide W65L = molecular target: T16, ApoC3 peptide W65L (human, cyclic (thioether))
T16 peptide: DKFSEFLDLDPEV
In short: as §1

ApoC3 peptide E63T = molecular target: T17, ApoC3 peptide E63T (human, cyclic (thioether))
T17 peptide: DKFSTFWDLDPEV
In short: as §1

ApoC3 peptide D59N = molecular target: T18, ApoC3 peptide D59N (human, thioether (positions not given here); not fully specified (C-terminus, bridges); also: cyclised via thioether between a C-terminal Cys and a modified N-terminus, the Cys and the N-terminal …)
T18 peptide: NKFSEFWDLDPEV
In short: as §1

ApoC3 peptide D68K = molecular target: T19, ApoC3 peptide D68K (human, cyclic (thioether))
T19 peptide: DKFSEFWDLKPEV
In short: as §1

ApoC3 peptide K60E = molecular target: T20, ApoC3 peptide K60E (human, cyclic (thioether))
T20 peptide: DEFSEFWDLDPEV
In short: as §1

ApoC3 peptide K60R = molecular target: T21, ApoC3 peptide K60R (human, cyclic (thioether))
T21 peptide: DRFSEFWDLDPEV
In short: as §1

ApoC3 peptide W65T = molecular target: T22, ApoC3 peptide W65T (human, cyclic (thioether))
T22 peptide: DKFSEFTDLDPEV
In short: as §1

ApoC3 peptide V71R = molecular target: T23, ApoC3 peptide V71R (human, not fully specified; cyclic (thioether))
T23 peptide: DKFSEFWDLDPER
In short: as §1

ApoC3 peptide E63R = molecular target: T24, ApoC3 peptide E63R (human, cyclic (thioether))
T24 peptide: DKFSRFWDLDPEV
In short: as §1

ApoC3 peptide D68H = molecular target: T25, ApoC3 peptide D68H (human, cyclic (thioether))
T25 peptide: DKFSEFWDLHPEV
In short: as §1

ApoC3 peptide E70G = molecular target: T26, ApoC3 peptide E70G (human, cyclic (thioether))
T26 peptide: DKFSEFWDLDPGV
In short: as §1

ApoC3 peptide D59H = molecular target: T27, ApoC3 peptide D59H (human, thioether (positions not given here); not fully specified (C-terminus, bridges))
T27 peptide: HKFSEFWDLDPEV
In short: as §1

ApoC3 peptide K60G = molecular target: T28, ApoC3 peptide K60G (human, cyclic (thioether))
T28 peptide: DGFSEFWDLDPEV
In short: as §1

ApoC3 peptide E70K = molecular target: T29, ApoC3 peptide E70K (human, cyclic (thioether))
T29 peptide: DKFSEFWDLDPKV
In short: as §1

ApoC3 peptide F61N = molecular target: T30, ApoC3 peptide F61N (human, cyclic (thioether))
T30 peptide: DKNSEFWDLDPEV
In short: as §1

ApoC3 peptide D66A = molecular target: T31, ApoC3 peptide D66A (human, not fully specified; cyclic (thioether))
T31 peptide: DKFSEFWALDPEV
In short: as §1

B1: Llama antibody 5E5 (antibody, V domains shown)
VH: QLQLVESGGGLVQPGGSLRLSCAASGFTFGTYSMRWVRQVPRKALEWVSSISTDGGGTAYRDSVKGRFTISRDNAKNTLYLQMNNLKPEDTAIYYCVIAGYSDWGQGTQVTVSS
VL: ATMLTQSPGSLSVVPGESASISCKTSQGLVHSDGKTYFYWFLQKPGQSPQQLIYQVSNRASGVPDRFTGSGSGTDFTLKISGVKAEDAGVYYCAQGTYYPHTFGSGTRLEIK
notes: detected with goat anti-human IgG (Fc); also called mAb 5E5
% of binding to wild-type peptide (ApoC3 peptide D59S): 57.7% | % of binding to wild-type peptide (ApoC3 peptide D68R): 0% | % of binding to wild-type peptide (ApoC3 peptide D59R): 43.3% | % of binding to wild-type peptide (ApoC3 peptide E70N): 49.6% | % of binding to wild-type peptide (ApoC3 peptide K60F): 53.2% | % of binding to wild-type peptide (ApoC3 peptide K60C): 67.2% | % of binding to wild-type peptide (ApoC3 peptide S62Y): 0% | % of binding to wild-type peptide (ApoC3 peptide E63N): 31.3% | % of binding to wild-type peptide (ApoC3 peptide F61G): 0.74% | % of binding to wild-type peptide (ApoC3 peptide E70M): 74% | % of binding to wild-type peptide (ApoC3 peptide F64N): 234% | % of binding to wild-type peptide (ApoC3 peptide P69C): 3.72% | % of binding to wild-type peptide (ApoC3 peptide W65R): 0.02% | % of binding to wild-type peptide (ApoC3 peptide D66R): 0.17% | % of binding to wild-type peptide (ApoC3 peptide F64L): 118% | % of binding to wild-type peptide (ApoC3 peptide W65L): 0% | % of binding to wild-type peptide (ApoC3 peptide E63T): 0% | % of binding to wild-type peptide (ApoC3 peptide D59N): 52.5% | % of binding to wild-type peptide (ApoC3 peptide D68K): 0.04% | % of binding to wild-type peptide (ApoC3 peptide K60E): 362% | % of binding to wild-type peptide (ApoC3 peptide K60R): 112% | % of binding to wild-type peptide (ApoC3 peptide W65T): 0% | % of binding to wild-type peptide (ApoC3 peptide V71R): 57.3% | % of binding to wild-type peptide (ApoC3 peptide E63R): 2.19% | % of binding to wild-type peptide (ApoC3 peptide D68H): 0% | % of binding to wild-type peptide (ApoC3 peptide E70G): 46.1% | % of binding to wild-type peptide (ApoC3 peptide D59H): 52.8% | % of binding to wild-type peptide (ApoC3 peptide K60G): 143% | % of binding to wild-type peptide (ApoC3 peptide E70K): 60.1% | % of binding to wild-type peptide (ApoC3 peptide F61N): 25.9% | % of binding to wild-type peptide (ApoC3 peptide D66A): 0%
